Laboratory results from IntAct's records for PubMed 20696164.

B1: E3 ubiquitin-protein ligase SH3RF3 (Homo sapiens), Q8TEJ3 (parent)
chain: MLLGASWLCASKAAAAAAQSEGDEDRPGERRRRRAAATAAGAGEDMDESSLLDLLECSVCLERLDTTAKVLPCQHTFCRRCLESIVCSRHELRCPECRILVGCGVDELPANILLVRLLDGIRQRPRAGTSPGGSPPARPIPGQSAAPTLAGGGGGAAGSTPGSPVFLSAAAGSTAGSLRELATSRTAPAAKNPCLLPYGKALYSYEGKEPGDLKFNKGDIIVLRRKVDEQWYHGELHGTQGFLPASYIQCIQPLPHAPPQGKALYDFEMKDKDQDKDCLTFTKDEILTVLRRVDENWAEGMLGDKIGIFPLLYVELNDSAKQLIEMDKPCPAAASSCNASLPSDSGAVASVAPSPTLSSSGAVSAFQRRVDGKKNTKKRHSFTALSVTHRSSQAASHRHSMEISAPVLISSSDPRAAARIGDLAHLSCAAPTQDVSSSAGSTPTAVPRAASVSGEQGTPPKVQLPLNVYLALYAYKPQKSDELELHKGEMYRVLEKCQDGWFKGASLRTGVSGVFPGNYVTPVSRVPAGGAGPPRNNVVGGSPLAKGITTTMHPGSGSLSSLATATRPALPITTPQAHAQHPTASPPTGSCLRHSAQPTASQARSTISTAAHSAAQAQDRPTATVSPLRTQNSPSRLPATSLRPHSVVSPQHSHQPPVQMCPRPAIPLTSAASAITPPNVSAANLNGEAGGGPIGVLSTSSPTNTGCKLDEKKSEKKEKKSGLLKLLAGASTKKKSRSPPSVSPTHDPQVAVDALLQGAVGPEVSSLSIHGRAGSCPIESEMQGAMGMEPLHRKAGSLDLNFTSPSRQAPLSMAAIRPEPKLLPRERYRVVVSYPPQSEAEIELKEGDIVFVHKKREDGWYKGTLQRNGRTGLFPGSFVESF
B2: E3 ubiquitin-protein ligase SH3RF1 (Homo sapiens), Q7Z6J0 (parent)
chain: MDESALLDLLECPVCLERLDASAKVLPCQHTFCKRCLLGIVGSRNELRCPECRTLVGSGVEELPSNILLVRLLDGIKQRPWKPGPGGGSGTNCTNALRSQSSTVANCSSKDLQSSQGGQQPRVQSWSPPVRGIPQLPCAKALYNYEGKEPGDLKFSKGDIIILRRQVDENWYHGEVNGIHGFFPTNFVQIIKPLPQPPPQCKALYDFEVKDKEADKDCLPFAKDDVLTVIRRVDENWAEGMLADKIGIFPISYVEFNSAAKQLIEWDKPPVPGVDAGECSSAAAQSSTAPKHSDTKKNTKKRHSFTSLTMANKSSQASQNRHSMEISPPVLISSSNPTAAARISELSGLSCSAPSQVHISTTGLIVTPPPSSPVTTGPSFTFPSDVPYQAALGTLNPPLPPPPLLAATVLASTPPGATAAAAAAGMGPRPMAGSTDQIAHLRPQTRPSVYVAIYPYTPRKEDELELRKGEMFLVFERCQDGWFKGTSMHTSKIGVFPGNYVAPVTRAVTNASQAKVPMSTAGQTSRGVTMVSPSTAGGPAQKLQGNGVAGSPSVVPAAVVSAAHIQTSPQAKVLLHMTGQMTVNQARNAVRTVAAHNQERPTAAVTPIQVQNAAGLSPASVGLSHHSLASPQPAPLMPGSATHTAAISISRASAPLACAAAAPLTSPSITSASLEAEPSGRIVTVLPGLPTSPDSASSACGNSSATKPDKDSKKEKKGLLKLLSGASTKRKPRVSPPASPTLEVELGSAELPLQGAVGPELPPGGGHGRAGSCPVDGDGPVTTAVAGAALAQDAFHRKASSLDSAVPIAPPPRQACSSLGPVLNESRPVVCERHRVVVSYPPQSEAELELKEGDIVFVHKKREDGWFKGTLQRNGKTGLFPGSFVENI

Variants of: B1
Conditions: with rac1_human RAC1, P63000

Variant | effect of a mutation on the interaction
P406A | disrupting interaction
I403N | disrupting interaction
S404P | disrupting interaction

Variants of: B1
Conditions: with rac1_human RAC1, P63000
Remark: another data set of the same source

Variant | effect of a mutation on the interaction
L385A | decreasing interaction

Variants of: B1
Conditions: with rac1_human RAC1, P63000
Remark: another data set of the same source

Variant | effect of a mutation on the interaction
P414A | decreasing interaction

Variants of: B1
Conditions: with ubc_human UBC

Variant | effect of a mutation on the interaction
H75A | decreasing interaction
C73A | decreasing interaction

Variants of: B2
Conditions: with ubc_human UBC

Variant | effect of a mutation on the interaction
C28A | decreasing interaction
H30A | decreasing interaction
